pKd: −log10 of the molar value.
Target: wild-type (WT) RBD of the SARS-CoV-2 spike protein (SARS-CoV-2) (UniProt P0DTC2)
Assay: ITC

CC12.1 ScFv
pKd: 7.62

— paper doi:10.1101/2021.12.23.474050
